The data set in a line: yeast display, Sf9 membrane polyspecificity reagent, FACS + sequencing; frameworks hold sequencing errors. The essentials:
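Nanobodies from a synthetic yeast display library (Saccharomyces cerevisiae BJ5465), induced 36–48 hours with galactose, were stained 1 hour at 4 °C with 10% biotinylated, detergent-solubilized Sf9 membrane reagent, enriched on streptavidin microbeads, then FACS-sorted. Anti-HA (expression) and streptavidin (reagent binding) fluorescence set low and high (top ~1%) gates. Polyreactivity labels come from the gate of origin. Genes were colony-PCR amplified, MiSeq 2 × 250 sequenced and filtered by CDR length.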
Take “QVQLEESGGGLVQAGGSLRLSCAASGRTFRTYTMGWYRQAPGTERELVAANSKRGSSTYYADSVKGRFTISRDNAKNTVYLQMNSLKPEDTAVYYCAARSWLSNSPYGYWGQGTQVTVSS”: the “polyreactivity (PSR sort gate)” value is reported as “high polyreactivity”.
On to “QVQLEESGGGLVQAGGSLRLSCAASGRTFSYNAMGWYRQPPGKEREFVAAITWRGSSTYYADSVKWRFTISRDYEKNTVYLQMNSLIPDDTAVYECNARATNVIWGRYDYWGQGTQVTVSS”, for which the “polyreactivity (PSR sort gate)” value is “high polyreactivity”.
Under “QVQLEESGGGLVQAGGSLRLSCAASGRTFTLNAMGWYRQAPGKEREFVAAISNSGVRTYYADSVKGRFTISRDNAKNTVYLQMNSLKPEDTAVYYCARTYQVGDSIDDYWGQGTQVTVSS” stands “low polyreactivity”; under “QVQLEESGGGLVQAGGSLRLSCAASGRTFVYNTKGWYRQAPGKERELVAAITSSGGRTSYADSVKGRFTISRDNAKNTVYLQMNSLKPEDTAVYYCAKDRYTSSTQYRRYDYWGQGTQVTVSS”, “high polyreactivity”; under “QVQLEESGGGLVQAGGSLRLSCAASGRTFWVYAMGWYRQAPGKERELVAAISRSGVSTYYADSVKGRFTISRDNAKNTVYLQMNSLKPEDTAVYYWAAEARVQFSYDYWGQGTQVTVSS”, “low polyreactivity”.
Consider “QVQLEESGGGLVQAGGSLRLSCAASGRTFYHYAMGWYRQAPGKERELVAGITDGTITTDADSVKGRFTISRDNAKNTVYLQMNSLKPEDTAVYYCNVGYSDWWRSWAMDYWGQGTQVTVSS”, for which the “polyreactivity (PSR sort gate)” value was “high polyreactivity”.
For “QVQLEESGGGLVQAGGSLRLSCAASGSIFDTYAMGWYRQAPGNERELVAAISSGGRTYYADSVKGRFTISRDNAKNTVYLQMNSLKPEDTAVYYCNARYHARYGGDYWGQGTQVTVSS”, the “polyreactivity (PSR sort gate)” value is “high polyreactivity”.
Under “QVQLEESGGGLVQAGGSLRLSCAASGSIFDVYAIGWYRQAPGKERELVAGINSAGSTYYADSVKGRFTISRDNAKNTVYLQMNSLKPEDSAVYYCAAREYILTPGYQWYTYRGYDYWGQGTQVTVSS” stands “low polyreactivity”; under “QVQLEESGGGLVQAGGSLRLSCAASGSIFGAYTMGWYRQAPGKERELVAAISIGGSKNYADSVKGRFTISRDNAKNTVYLQMNSLKPEDTAVYYCNAEPDLEDWWWAIGLYDYWGQGTQVTVSS”, “high polyreactivity”; under “QVQLEESGGGLVQAGGSLRLSCAASGSIFLGYAMGWYRQAPGKERELVAAITTVGSTNYADSVKGRFTISRDNAKNTVYLQMNSVKPEDTAVYYCAAGWVGWGEKYTLDYWGQGTQVTVSS”, “high polyreactivity”.
Turning to “QVQLEESGGGLVQAGGSLRLSCAASGSIFQQYAMGWYRQAPGKERELVAAISYSGGTTYYADSVKGRFTISRDNAKNTVYLQMNSLKPEDTAVDYCAAYYPSGSYDYYWGQGTQVTVSS”, the “polyreactivity (PSR sort gate)” value is “low polyreactivity”.
On to “QVQLEESGGGLVQAGGSLRLSCAASGSIFRGYAMGWYRQAPGKERELVAAITWGGGSTYADSVKGRFTISRDNAKNTVYLQMNSLKPEDTAVYYCAARYVSRYYVYRGFEYWGQGTQVTVSS”, for which the “polyreactivity (PSR sort gate)” value is “high polyreactivity”.
As for “QVQLEESGGGLVQAGGSLRLSCAASGSIFRPNAMGWYRQAPGKERELVASINSGSGSTYYADSVKGRFTISRDNAKNTVYLQMNSLKPEDTAVYYCNAAGAYPYYSEDYYWGQGTQVTVSS”, the “polyreactivity (PSR sort gate)” value is “low polyreactivity”.
As for “QVQLEESGGGLVQAGGSLRLSCAASGSIFYDYAMGWYRQAPGKERELVAAISKSDGSTYYADSVKGRFTISRDNAKNTVYLQMNSLKPEDTAVYYCNADLIYSYPPEYDYWGQGTQVTVSS”, the “polyreactivity (PSR sort gate)” value is “high polyreactivity”.
On to “QVQLEESGGGLVQAGGSLRLSCAASGSIIRYNAMGWYRQAPGKERELVAAISASGGRTHYADSVKGRFTISRDNAKNTVYLQMNSLKPEYTAVYYCAASTYRVTSLYGYWGQGTQVTVSS”, for which the “polyreactivity (PSR sort gate)” value is on record as “high polyreactivity”.
Take “QVQLEESGGGLVQAGGSLRLSCAASGSTFDNNGMGWYRQATGKERELVASITFNVGSTYYADSVKGRFTMSRDNAKNTVYLQMNSLKPEDTAVYYCGADDLNLSQALGYDFWGQGTQVTVSS”: the “polyreactivity (PSR sort gate)” value is “low polyreactivity”.
“QVQLEESGGGLVQAGGSLRLSCAASGSTFDRNTMGWYRQAPGKERELVAAITWSSGSTYYADSVKGRFTISRDNAKNTVYLQMNSLKPEDTAVYYCAADPIRYRSRHKYGYWGQGTQVTVSS”: the “polyreactivity (PSR sort gate)” value is recorded as “low polyreactivity”.
As for “QVQLEESGGGLVQAGGSLRLSCAASGSTFPGNALGWYRQAPGKERELVAAITSSGGSTDYADSVKGRFTISRDNAKNTVYLQMNSLKPEDTAVYYCAADGEDSLWTGYDYDYWGQGTQVTVSS”, the “polyreactivity (PSR sort gate)” value is “low polyreactivity”.
For the sequence “QVQLEESGGGLVQAGGSLRLSCAASGSTFPGNGMGCYRPEPGKERELVAYISGGGDSTYYADSVKGRFTISRDNAKNTVYLQMNSLKPEETAVYYCAADYRQEPGYTGYYYWGHGTQVTVSS”, the “polyreactivity (PSR sort gate)” value is recorded as “low polyreactivity”.
As for “QVQLEESGGGLVQAGGSLRLSCAASGSTFPPYEMGWYRQAPGKERELVAAISGSGGSTNYADSVKGRFTISRDHAKNTVYLQMNSLKPEDNAVYRDYWGQGTQVTVSS”, the “polyreactivity (PSR sort gate)” value is reported as “low polyreactivity”.
Regarding “QVQLEESGGGLVQAGGSLRLSCAASGSTFRANAMGWYRQAPGKERELVAAISSGDSTNYADSVKGRFTISRDNAKNTVYLQMNSLKPEDTAVYYCAAVYTYYWWGSYGFWGQGTQVTVSS”, the “polyreactivity (PSR sort gate)” value was “low polyreactivity”.
“QVQLEESGGGLVQAGGSLRLSCAASGSTFRYYAMGWYRQAHGKERELVAGISSSGGSTYYADSVKGRFTISRDNAKNTVYLQMNSLKPEDTAVYYCNAARGSSRSWAVFADYDYWGQGTQVTVSS”: the “polyreactivity (PSR sort gate)” value is “high polyreactivity”.
Then “QVQLEESGGGLVQAGGSLRLSCAASGSTFTGYAMGWYRQAPGKERELVAAISISGGRTFYADSVKVRFTISRDNAKNTVYLQMNSLKPEDTAVYYCAAYLRGSKYSFDYWGQGTQVTVSS”, with “high polyreactivity”; and “QVQLEESGGGLVQAGGSLRLSCAASGSTFTLNAMGWYRQAPGKERELVADISWSSGRTYYADSVKGRFTISRDNAKNTVYLQMNSLKPEDTAVYYCATDDFWNVKFYAYYPEFDYWGQGTQVTVSS”, with “low polyreactivity”.
Regarding “QVQLEESGGGLVQAGGSLRLSCAASGSTFYAYAMGWYRQAPGKERELVAAIDSGGSTYYADSVKGRFTSSRDNAKNTVYLQMNSLKPEDTAVYYCAVRHRYTRAFWGRDYWGQGTQVTVSS”, the “polyreactivity (PSR sort gate)” value is reported as “low polyreactivity”.
With “QVQLEESGGGLVQAGGSLRLSCAASGSTFYLYDMGWYRQAPGKERELVATITSATSTTYADSVKGRFTISRDNATNTVYLQMNSLNPEHTAVYYCNATDVGIITVGYGHGGYYWGQGTQVTVSS”, the “polyreactivity (PSR sort gate)” value is given as “low polyreactivity”.
For “QVQLEESGGGLVQAGGSLRLSCAASGSTLEYNVMGWYRQAPGKERELVAAFSRSGGITYYADSVKGRFTISRDNAKNTVYLQMNRLKPEDTAVYYCNRLYTRVREYESWGQGTQVTVSS”, the “polyreactivity (PSR sort gate)” value is reported as “high polyreactivity”.
Then “QVQLEESGGGLVQAGGSLRLSCAASGSTLGYNVMGWYRQAPGKERELVAAISGDGSTNYADSVKGRFTISRDNAKNTVYLQMNSLKPEDTAVYYCAADTYGGSRDYWGQGTQVTVSS”, with “low polyreactivity”.
As for “QVQLEESGGGLVQAGGSLRLSCAASGYTFGFYTMGWYRQAPGQERALVAGISWSGGSTYYADSVKGPFTISRDNAKNTVYLQMNSLKQEDTAVFYCAAVSTRVLVNYDSWGQGTQVTVSS”, the “polyreactivity (PSR sort gate)” value is given as “high polyreactivity”.
On to “QVQLEESGGGLVQAGGSLRLSCAASGYTFRPYAIGWYRQAAGKERVLVAAISRSGGRTYYADSVKGRFTISRDNAKNTVYLQMNSLIPEDTAVYYCAADRFSLSGFDSWGQGTQGTVSS”, for which the “polyreactivity (PSR sort gate)” value is “low polyreactivity”.
With “QVQLEESGGGLVQAGGSLRLSCAASGYTFYYYAMGWYRQAPGKERELVAAISRSGGSTYYADSVKGRFTISRDNAKNTVSLQMNSLKQEDTAVYYCAARRLVGAERPGYDYWGQGTQVTVSS”, the “polyreactivity (PSR sort gate)” value is “high polyreactivity”.
As to “QVQLEESGGGLVQAGGSLRLSCAATGLIFRTYAMGWYRQAPGKERELVAAISYSGGSTFYADSVNGRFTISRDNAKNTVYLQMNRLKPEDTAVYYCAADSRAKRYYWGQGTQVTVSS”, the “polyreactivity (PSR sort gate)” value is “high polyreactivity”.
Regarding “QVQLEESGGGLVQAGGSLRLSCAAYGIIFRTYDMGWYRQAPGKEREFVAAINSDCSTYYADSVKGRFTFSRDNAKNSVYLQMISVKTEDTAVYYCASDHYYAGAWYYFWGQGTQVTVSS”, the “polyreactivity (PSR sort gate)” value is “high polyreactivity”.
“QVQLEESGGGLVQAGGSLRLSCAGSGFTFGVYAMGWYRQAPGKERELVAVIRGSGGSTYYADSVKGRFTISRDKAKNTVYLQMNSLKPEDTAGYYCAARRYQYVWSLYNYWGQGTQVTVSS”: the “polyreactivity (PSR sort gate)” value is “high polyreactivity”.
“QVQLEESGGGLVQAGGSLRLSCPASGIIFGSYAMGWSRQAPGKERELVAAITSDGITNYADSVKGRFTISRDNGKNTVYLPMNSLKPEDTAVYYCAAPGPLGGSDYWGQGTQVTVSS”: the “polyreactivity (PSR sort gate)” value was “low polyreactivity”.
For “QVQLEESGGGLVQAGGSLRLSCPASGSTFGKNAMGWSRQAPGKERELVASITWRGGCTYYADSVKGRITISRDNAKNTVFLQMNSLKPEDTAVYYCATNWHIHIGSYKYYYWGQGTQVTVSS”, the “polyreactivity (PSR sort gate)” value is reported as “low polyreactivity”.
With “QVQLEESGGGLVQAGGSLRLSSAASGRIFGGYAMGWYRQAPGKEREMVAAITQSGGSTYYADSVKGRFTISRDNAKNTVYLQMNSLTAEDTAVYYCNARLARGYWTPGKERPMEYWGQGTQVTVSS”, the “polyreactivity (PSR sort gate)” value is recorded as “low polyreactivity”.
“QVQLEESGGGLVQAGGSLRLSSAASGSTFCWYAMGGYRKEPGKERELVAAISIGGSTKYADSVKGRLTISRDNAKNSVYLQMNRMKPEYSAVYYCAAEVSYHYVPYGYWGQGTQVTVSS”: the “polyreactivity (PSR sort gate)” value is “low polyreactivity”.
With “QVQLEESGGGLVQAGGSLRLSSAASGSTFYIYVMGWYSQAPGKERELVARISSSGGSTYYADSVKGRFTISRDNAKNSVYLQMNSLKPVDTAVYYCNVDYGAWYDYWGQGTQVTVSS”, the “polyreactivity (PSR sort gate)” value is listed as “low polyreactivity”.
Take “QVQLEESGGGLVQAGGSLRLSWAASGSTFSVNAMGWYRQAPGKERELVARITNGGSTYYADSVKGRFTISRDNAKNTVYLQMNSLKPEDTAVYYCAAKLGSYIYHKQRDWGQGTQVTVSS”: the “polyreactivity (PSR sort gate)” value is on record as “low polyreactivity”.
Regarding “QVQLEESGGGLVQAGGSLRLTCAASGITFGTYAMGWYRQAPGKEREFVAGYYADSVKGRFTISRDNAKNTVYLQMNSLKPEDTAVYYCAADYLYHDDVDYWGQGTQVTVSS”, the “polyreactivity (PSR sort gate)” value is “low polyreactivity”.

For the origin of these results see the nanobody polyreactivity screen of Harvey et al. (2022).
